# Experimental data reported in patent KR20210028556A (dated 2021).
# How the values were obtained:
# [1] = molecular target: T1, 마우스 ROR1 (세포 표면 발현, CHO-mouse ROR1) (mouse, UniProt Q9Z139 30-937); experiment: flow cytometry, CHO-mouse ROR1 cells
# T1 construct: whole, on cells; transiently overexpressed on CHO cells
# [2] = molecular target: T2, 재조합 마우스 ROR1 단백질 (Acrobiosystems, RO1-M5221) (mouse, UniProt Q9Z139 30-406); experiment: ELISA, IgG on coated recombinant mouse ROR1
# T2 construct: extracellular domain; bought protein; also called 마우스 ROR1 항원
# T2 sequence (Q9Z139 30-406): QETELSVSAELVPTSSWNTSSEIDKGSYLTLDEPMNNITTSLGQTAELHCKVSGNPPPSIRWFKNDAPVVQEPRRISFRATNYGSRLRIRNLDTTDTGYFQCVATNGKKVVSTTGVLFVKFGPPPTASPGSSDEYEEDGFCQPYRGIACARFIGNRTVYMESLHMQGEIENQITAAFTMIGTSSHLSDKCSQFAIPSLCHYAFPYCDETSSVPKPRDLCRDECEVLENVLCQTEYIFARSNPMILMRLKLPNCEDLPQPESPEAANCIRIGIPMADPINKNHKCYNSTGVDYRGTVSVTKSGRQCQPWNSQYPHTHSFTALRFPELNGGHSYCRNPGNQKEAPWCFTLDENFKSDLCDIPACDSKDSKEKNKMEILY
# [3] = molecular target: T3, 인간 ROR1 항원 (ELISA 코팅: 실시예 1의 ROR1-Fc 또는 재조합 인간 ROR1-His) (human, UniProt Q01973 30-406); experiment: ELISA, IgG on coated human ROR1 protein
# T3 construct: extracellular domain; tag therefore open
# T3 sequence (Q01973 30-406): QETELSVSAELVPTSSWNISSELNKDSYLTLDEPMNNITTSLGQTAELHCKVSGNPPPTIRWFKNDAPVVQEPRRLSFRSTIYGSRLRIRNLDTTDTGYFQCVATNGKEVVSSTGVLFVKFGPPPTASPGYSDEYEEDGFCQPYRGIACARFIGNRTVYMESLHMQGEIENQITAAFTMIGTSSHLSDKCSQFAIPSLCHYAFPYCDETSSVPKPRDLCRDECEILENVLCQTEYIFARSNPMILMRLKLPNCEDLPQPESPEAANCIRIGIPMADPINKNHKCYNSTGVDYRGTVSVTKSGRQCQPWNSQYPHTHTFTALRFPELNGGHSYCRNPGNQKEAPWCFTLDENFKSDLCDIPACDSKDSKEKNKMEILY
# 인간 ROR1 (세포 표면 발현) = molecular target: T4, 인간 ROR1 (세포 표면 발현) (human, UniProt Q01973 30-937); experiment: flow cytometry, JeKo-1 and Mino cells
# T4 construct: whole, on cells; endogenous on JeKo-1, Mino and other human cancer lines; overexpressed on CHO and MC38 cells; also called hROR1; CHO-human ROR1
# T4 sequence (Q01973 30-937): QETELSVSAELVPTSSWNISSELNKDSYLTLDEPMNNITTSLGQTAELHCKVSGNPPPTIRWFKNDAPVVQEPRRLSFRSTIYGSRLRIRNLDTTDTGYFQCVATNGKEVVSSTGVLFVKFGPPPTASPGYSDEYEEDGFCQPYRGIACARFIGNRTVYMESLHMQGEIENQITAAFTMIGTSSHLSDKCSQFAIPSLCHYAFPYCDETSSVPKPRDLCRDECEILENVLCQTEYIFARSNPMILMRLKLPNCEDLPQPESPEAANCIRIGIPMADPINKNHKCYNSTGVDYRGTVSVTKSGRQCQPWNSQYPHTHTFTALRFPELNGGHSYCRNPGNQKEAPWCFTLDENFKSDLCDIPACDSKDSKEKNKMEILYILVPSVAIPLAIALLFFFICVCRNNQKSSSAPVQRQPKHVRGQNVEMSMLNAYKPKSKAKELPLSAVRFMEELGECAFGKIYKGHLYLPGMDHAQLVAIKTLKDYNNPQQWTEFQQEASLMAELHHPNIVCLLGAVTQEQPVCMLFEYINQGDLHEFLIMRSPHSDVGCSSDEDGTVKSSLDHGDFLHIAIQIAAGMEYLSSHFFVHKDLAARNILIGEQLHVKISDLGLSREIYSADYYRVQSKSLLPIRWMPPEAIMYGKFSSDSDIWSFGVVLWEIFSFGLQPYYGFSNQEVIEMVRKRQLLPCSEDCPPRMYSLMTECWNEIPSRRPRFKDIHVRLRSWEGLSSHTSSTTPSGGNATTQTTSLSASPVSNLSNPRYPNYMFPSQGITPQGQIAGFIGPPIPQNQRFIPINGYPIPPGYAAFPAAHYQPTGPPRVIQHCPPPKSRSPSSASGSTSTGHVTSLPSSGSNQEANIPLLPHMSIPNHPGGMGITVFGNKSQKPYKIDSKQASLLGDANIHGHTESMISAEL
# [4] = molecular target: T5, 인간 ROR2 (세포 표면 발현, CHO-human ROR2) (human, UniProt Q01974 34-943); experiment: flow cytometry, CHO-human ROR2 cells
# T5 construct: whole, on cells; negative control, transiently overexpressed on CHO cells
# T5 sequence (Q01974 34-943): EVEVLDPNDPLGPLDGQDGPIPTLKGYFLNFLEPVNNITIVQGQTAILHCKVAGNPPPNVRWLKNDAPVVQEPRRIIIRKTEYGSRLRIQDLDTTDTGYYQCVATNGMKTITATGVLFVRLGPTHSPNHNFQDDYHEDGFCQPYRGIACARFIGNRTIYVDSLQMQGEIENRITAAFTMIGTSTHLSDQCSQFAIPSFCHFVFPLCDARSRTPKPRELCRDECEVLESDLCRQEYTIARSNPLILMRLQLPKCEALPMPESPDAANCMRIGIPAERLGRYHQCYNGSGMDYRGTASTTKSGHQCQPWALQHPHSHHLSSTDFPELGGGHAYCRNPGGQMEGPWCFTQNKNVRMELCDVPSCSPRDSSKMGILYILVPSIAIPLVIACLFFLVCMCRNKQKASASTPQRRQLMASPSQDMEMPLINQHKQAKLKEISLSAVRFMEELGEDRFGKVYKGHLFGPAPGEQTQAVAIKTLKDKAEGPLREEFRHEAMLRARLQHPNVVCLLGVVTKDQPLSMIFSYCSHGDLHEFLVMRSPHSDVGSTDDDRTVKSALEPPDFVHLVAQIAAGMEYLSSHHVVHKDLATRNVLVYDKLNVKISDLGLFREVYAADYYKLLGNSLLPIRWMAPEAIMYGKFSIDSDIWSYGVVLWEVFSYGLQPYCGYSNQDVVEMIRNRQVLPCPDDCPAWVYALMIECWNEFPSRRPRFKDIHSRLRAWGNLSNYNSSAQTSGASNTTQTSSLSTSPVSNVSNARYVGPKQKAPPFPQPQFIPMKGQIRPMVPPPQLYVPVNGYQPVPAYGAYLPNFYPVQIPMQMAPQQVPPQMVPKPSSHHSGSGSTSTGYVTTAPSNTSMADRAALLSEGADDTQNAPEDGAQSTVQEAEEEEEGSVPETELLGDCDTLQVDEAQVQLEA
# [5] = molecular target: T6, 재조합 인간 ROR1-His (Sino Biological, 13968-H08H) (human, UniProt Q01973 30-403); experiment: BLI (Octet), ROR1-His on the sensor, 1:1 fit
# T6 construct: bought protein
# T6 sequence (Q01973 30-403 limits assumed): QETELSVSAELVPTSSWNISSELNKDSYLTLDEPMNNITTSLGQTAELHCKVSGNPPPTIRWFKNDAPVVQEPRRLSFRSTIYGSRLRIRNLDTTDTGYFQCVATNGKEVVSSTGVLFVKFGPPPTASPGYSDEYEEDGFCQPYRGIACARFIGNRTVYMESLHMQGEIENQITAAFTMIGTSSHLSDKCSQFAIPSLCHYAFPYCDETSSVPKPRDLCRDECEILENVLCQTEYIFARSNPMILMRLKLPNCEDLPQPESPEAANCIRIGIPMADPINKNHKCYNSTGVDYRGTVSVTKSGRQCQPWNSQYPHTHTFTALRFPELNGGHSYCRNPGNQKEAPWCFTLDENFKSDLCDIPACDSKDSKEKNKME
# T1 sequence (Q9Z139 30-937): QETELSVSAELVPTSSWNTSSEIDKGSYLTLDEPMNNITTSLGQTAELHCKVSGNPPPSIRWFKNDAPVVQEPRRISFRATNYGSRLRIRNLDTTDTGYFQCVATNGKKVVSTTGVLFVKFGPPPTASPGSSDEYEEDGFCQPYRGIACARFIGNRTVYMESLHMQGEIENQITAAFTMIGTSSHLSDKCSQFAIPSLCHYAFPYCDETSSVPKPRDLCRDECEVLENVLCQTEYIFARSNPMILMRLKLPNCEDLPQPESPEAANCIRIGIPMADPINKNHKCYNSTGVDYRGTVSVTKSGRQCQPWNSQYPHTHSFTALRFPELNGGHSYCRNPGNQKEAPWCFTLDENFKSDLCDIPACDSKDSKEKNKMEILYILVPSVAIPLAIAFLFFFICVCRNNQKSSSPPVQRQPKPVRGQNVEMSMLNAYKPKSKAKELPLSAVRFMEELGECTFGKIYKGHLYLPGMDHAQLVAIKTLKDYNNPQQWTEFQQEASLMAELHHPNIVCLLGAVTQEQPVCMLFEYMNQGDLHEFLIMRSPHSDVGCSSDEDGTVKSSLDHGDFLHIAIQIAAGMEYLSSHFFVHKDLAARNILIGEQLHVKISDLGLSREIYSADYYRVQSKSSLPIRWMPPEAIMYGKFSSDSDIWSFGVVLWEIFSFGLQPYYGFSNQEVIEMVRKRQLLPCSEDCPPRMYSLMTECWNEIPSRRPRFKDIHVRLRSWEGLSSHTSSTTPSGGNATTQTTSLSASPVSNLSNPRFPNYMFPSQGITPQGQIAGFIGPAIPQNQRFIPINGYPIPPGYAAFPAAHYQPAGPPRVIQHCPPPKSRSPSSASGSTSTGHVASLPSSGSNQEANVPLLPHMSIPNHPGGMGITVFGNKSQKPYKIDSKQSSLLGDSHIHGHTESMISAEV
binding result [1],binding result [2],binding result [3],binding result (인간 ROR1 (세포 표면 발현)),binding result [4],binding result [5],Binder
binds,binds,binds,binds,no binding,binds,"A2F2 (antibody, human IgG1, lambda, V domains shown, full IgG, human IgG1 heavy and lambda light constant regions; expressed in CHO-S; also called 항-ROR1 IgG 항체 A2F2) VH: EVQLLESGGGLVQPGGSLRLSCAASGFTFSDYYMSWVRQAPGKGLEWVSSISPDGSNTYYADSVKGRFTISRDNSKNTLYLQMNSLRAEDTAVYYCAKNLRAFDYWGQGTLVTVSS VL: QSVLTQPPPASGTPGQRVTISCSGSSSNIGSNTVYWYQQLPGTAPKLLIYANSQRPSGVPDRFSGSKSGTSASLAISGLRSEDEADYYCGSWDYSLSGYVFGGGTKLTVLG"
binds,binds,binds,binds,no binding,binds,"D2B12 (antibody, human IgG1, lambda, V domains shown, full IgG, human IgG1 heavy and lambda light constant regions; expressed in CHO-S; also called 항-ROR1 IgG 항체 D2B12) VH: EVQLLESGGGLVQPGGSLRLSCAASGFTFSNYDMSWVRQAPGKGLEWVSSISPSSGSSIYYADSVKGRFTISRDNSKNTLYLQMNSLRAEDTAVYYCAKAPGWCQAPSCYYDNAMDVWGQGTLVTVSS VL: QSVLTQPPSASGTPGQRVTISCSGSSSNIGNNDVSWYQQLPGTAPKLLIYDDSQRPSGVPDRFSGSKSGTSASLAISGLRSEDEADYYCGAWDDSLSGYVFGGGTKLTVLG"
binds,binds,–,–,no binding,–,"C2E3 (antibody, human IgG1, lambda, V domains shown, full IgG, human IgG1 heavy and lambda light constant regions; expressed in CHO-S; also called 항-ROR1 IgG 항체 C2E3; ROR1 단일클론항체(C2E3)) VH: EVQLLESGGGLVQPGGSLRLSCAASGFTFSNYAMSWVRQAPGKGLEWVSSISHNSGSTYYADSVKGRFTISRDNSKNTLYLQMNSLRAEDTAVYYCAKFISARKSLGRSYSNGMDVWGQGTLVTVSS VL: QSVLTQPPSASGTPGQRVTISCTGSSSNIGSNDVTWYQQLPGTAPKLLIYADSKRPSGVPDRFSGSKSGTSASLAISGLRSEDEADYYCGTWDYSLSGYVFGGGTKLTVLG"
binds,binds,binds,binds,no binding,binds,"DG6 (antibody, human IgG1, lambda, V domains shown, full IgG, human IgG1 heavy and lambda light constant regions; expressed in CHO-S; also called 항-ROR1 IgG 항체 DG6) VH: EVQLLESGGGLVQPGGSLRLSCAASGFTFSDYDMSWVRQAPGKGLEWVSVISPDGGSIYYADSVKGRFTISRDNSKNTLYLQMNSLRAEDTAVYYCARDVVECNMNPCSYDNAMDVWGQGTLVTVSS VL: QSVLTQPPSASGTPGQRVTISCSGSSSNIGSNYVSWYQQLPGTAPKLLIYDDSHRPSGVPDRFSGSKSGTSASLAISGLRSEDEADYYCGAWDDSLSGYVFGGGTKLTVLG"
binds,binds,–,–,no binding,–,"AB4 (antibody, human IgG1, lambda, V domains shown, full IgG, human IgG1 heavy and lambda light constant regions; expressed in CHO-S; also called 항-ROR1 IgG 항체 AB4) VH: EVQLLESGGGLVQPGGSLRLSCAASGFTFSSYDMSWVRQAPGKGLEWVSWISPDSGSIYYADSVKGRFTISRDNSKNTLYLQMNSLRAEDTAVYYCARPTGRFDYWGQGTLVTVSS VL: QSVLTQPPSASGTPGQRVTISCSGSSSNIGNNNVNWYQQLPGTAPKLLIYYDNKRPSGVPDRFSGSKSGTSASLAISGLRSEDEADYYCGTWDASLSGYVFGGGTKLTVLG"
binds,binds,binds,binds,no binding,binds,"CC9 (antibody, human IgG1, lambda, V domains shown, full IgG, human IgG1 heavy and lambda light constant regions; expressed in CHO-S; also called 항-ROR1 IgG 항체 CC9) VH: EVQLLESGGGLVQPGGSLRLSCAASGFTFSSYDMSWVRQAPGKGLEWVSGISHGSGNKYYADSVKGRFTISRDNSKNTLYLQMNSLRAEDTAVYYCAKRLSLRRRPSYYSDNAMDVWGQGTLVTVSS VL: QSVLTQPPSASGTPGQRVTISCTGSSSNIGNNAVNWYQQLPGTAPKLLIYYDSNRPSGVPDRFSGSKSGTSASLAISGLRSEDEADYYCGAWDDSLSGYVFGGGTKLTVLG"
binds,binds,binds,binds,no binding,binds,"BA6 (antibody, human IgG1, lambda, V domains shown, full IgG, human IgG1 heavy and lambda light constant regions; expressed in CHO-S; also called 항-ROR1 IgG 항체 BA6) VH: EVQLLESGGGLVQPGGSLRLSCAASGFTFSNYDMSWVRQAPGKGLEWVSAIYHSGSSKYYADSVKGRFTISRDNSKNTLYLQMNSLRAEDTAVYYCARGGNGAWDTGFDYWGQGTLVTVSS VL: QSVLTQPPSASGTPGQRVTISCSGSSSNIGSNDVSWYQQLPGTAPKLLIYYDNNRPSGVPDRFSGSKSGTSASLAISGLRSEDEADYYCGAWDDSLSGYVFGGGTKLTVLG"
binds,binds,binds,binds,no binding,binds,"BA6 M1 (antibody, human IgG1, lambda, V domains shown, full IgG, human IgG1 heavy and lambda light constant regions; expressed in CHO-S; also called 항-ROR1 IgG 항체 BA6 M1) VH: EVQLLESGGGLVQPGGSLRLSCAASGFTFSNYDMSWVRQAPGKGLEWVSAIYHSGSSKYYADSVKGRFTISRDNSKNTLYLQMNSLRAEDTAVYYCARGGNAAWDTGFDYWGQGTLVTVSS VL: QSVLTQPPSASGTPGQRVTISCSGSSSNIGSNDVSWYQQLPGTAPKLLIYYDNNRPSGVPDRFSGSKSGTSASLAISGLRSEDEADYYCGAWDDSLSGYVFGGGTKLTVLG"
binds,binds,binds,binds,no binding,binds,"A2F2 M1 (antibody, human IgG1, lambda, V domains shown, full IgG, human IgG1 heavy and lambda light constant regions; expressed in CHO-S; also called 항-ROR1 IgG 항체 A2F2 M1) VH: EVQLLESGGGLVQPGGSLRLSCAASGFTFSDYYMSWVRQAPGKGLEWVSSISPDASNTYYADSVKGRFTISRDNSKNTLYLQMNSLRAEDTAVYYCAKNLRAFDYWGQGTLVTVSS VL: QSVLTQPPPASGTPGQRVTISCSGSSSNIGSNTVYWYQQLPGTAPKLLIYANSQRPSGVPDRFSGSKSGTSASLAISGLRSEDEADYYCGSWDYSLSGYVFGGGTKLTVLG"
binds,binds,binds,binds,no binding,binds,"A2F3 (antibody, human IgG1, lambda, V domains shown, full IgG, human IgG1 heavy and lambda light constant regions; expressed in CHO-S; also called 항-ROR1 IgG 항체 A2F3) VH: EVQLLESGGGLVQPGGSLRLSCAASGFTFSSYDMSWVRQAPGKGLEWVSWISPGGGSKYYADSVKGRFTISRDNSKNTLYLQMNSLRAEDTAVYYCARVNGRFDYWGQGTLVTVSS VL: QSVLTQPPSASGTPGQRVTISCSGSSSNIGNNNVSWYQQLPGTAPKLLIYADSHRPSGVPDRFSGSKSGTSASLAISGLRSEDEADYYCATWDYSLSGYVFGGGTKLTVLG"
